Data: paper doi:10.1101/2022.02.11.480038 (2022)
Where no end group is shown, it is not given here. [ ]: non-standard residue; d: D form. pS = N[C@@H](COP(=O)(O)O)C(=O)O

B1: Human GABARAP (residues 1-116) (natural protein)
chain: MKFVYKEEHPFEKRRSEGEKIRKKYPDRVPVIVEKAPKARIGDLDKKKYLVPSDLTVGQFYFLIRKRIHLRAEDALFFFVNNVIPPTSATMGQLYQEHHEEDFFLYIAYSDESVYG

Tests used:
Test in all cases: ITC
[1] = target: TEX264 269-278 S271A,S272A
[2] = target: B1
[3] = target: Human LC3B (residues 1-120) (human, UniProt Q9GZQ8 1-120)
GABARAP Y5F H9A mutant = GABARAP Y5F H9A mutant (human, UniProt O95166 1-116, Y5F | H9A)
Y5F H9A K48A = target: Y5F H9A K48A

Chain of GABARAP Y5F H9A mutant (O95166 1-116 Y5F/H9A): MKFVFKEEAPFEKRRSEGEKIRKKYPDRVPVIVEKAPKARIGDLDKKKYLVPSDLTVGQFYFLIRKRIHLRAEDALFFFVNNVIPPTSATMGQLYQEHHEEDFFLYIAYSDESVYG

| Kd [1] [µM] | Kd [2] [µM] | Kd [3] [µM] | Kd (GABARAP Y5F H9A mutant) [µM] | Kd (Y5F H9A K48A) [µM] | Binder |
| --- | --- | --- | --- | --- | --- |
| 72 |  |  |  |  | B1 |
|  | 2.2 | 5 |  |  | EGEEFEELDL [phosphomimetic TEX264^(S269E, S271E, S272E) peptide (3SE-LIR)] |
|  | 2.1 | 7.6 |  |  | SGDDFEELDL [phosphomimetic TEX264^(S271D, S272D) peptide (2SD-LIR)] |
|  | 47 | 21 |  |  | SGSSFEELDL [TEX264 LIR peptide (residues 269-278), unphosphorylated wild type] |
|  | 0.52 | 0.37 | 2.2 | 30 | SG[pS][pS]FEELDL [phosphorylated TEX264 LIR (residues 269-278 with p-S271,p-S272)] |
|  | 2.2 | 6.8 |  |  | DGDDFEELDL [phosphomimetic TEX264^(S269D, S271D, S272D) peptide (3SD-LIR)] |
|  | 2.3 | 5.2 |  |  | SGEEFEELDL [phosphomimetic TEX264^(S271, 272E) peptide (2SE-LIR)] |
|  | 9.3 | 22 |  |  | [pS]GASGSSFEELDL [TEX264 LIR peptide (residues 266-278) with S266 phosphorylation (p-S266)] |
|  | 0.25 | 0.25 |  |  | [pS]G[pS][pS]FEELDL [TEX264 peptide (residues 269-278) with p-S269, p-S271, p-S272] |
|  | 2.1 | 0.57 |  |  | SGS[pS]FEELDL [TEX264 peptide (residues 269-278) with S272 phosphorylation (p-S272)] |
|  | 61 | 39 |  |  | SGASGSSFEELDL [TEX264 LIR peptide (residues 266-278), unphosphorylated] |
